The text below walks through data of publication PMC11187106.

In the test the target is CtBP2(WT) (human) (UniProt P56545). Put plainly: SEC; analytical Superose 6 3.2/300 GL, 50 mM HEPES (pH 7.2), 150 mM NaCl; CtBP kept at 100 µM, RAI2 variants titrated at ratios 1:0.1 to 1:2; proteins also run alone; assembly stoichiometries estimated from the elution volumes.

In the case of “CtBP2(WT), P56545 1-445 (natural protein; other documents disagree on this pair)”, the stoichiometry N was 4.
